Measured values published in the DeepSol protein solubility set.

Assay: soluble on expression in E. coli; label from the status in PepcDB or PDB records

Sequence	soluble on expression in E. coli
MTVPLTTRDRIALIPIAEIHILNPRTRNKKIHHELIENIKTVGLKRPITVSRRVSTQGSFNYDLVCGQGRLEAFLALEATEIPAFVIDSAEEDCLVMSLVENVARRQHRPIDLMNEVGRLKGRGKTDAEIATIIGSTSSWVNMIVNLIERGEEKLLSAVETGLIPLSMATDIARSSESDIQDLLTDAYERGIRGKKITKLRHLLELRAKKDKLVRGNPLGVSQNKKKRLTPTDLRHLFEREAERQRLMVKKAAFTHDRVVFSIQAIKELLAVSDFEKLLSTEHLDSMPKLIQARLSNRGGL	not soluble
MTVQIENEFLIATFAEEGAELVSLQSKETGIEYIWQGNPEFWARHAPVLFPIVGRLKEDTYMYQNQAYHLTQHGFARDQVFDVIEKGGEEVSFSLKSTKETKKKYPFDFELVITYTLEHQELTVNYQVEYTGKEEMYFGIGGHPAFNVPLESSLTFEDYYLSFSPKKSRTQIPLAGPFIDLANKTLAQTNTSFDLTHQLFENDAMIFETKGQTAITIATDESDHQVTLSYPEMPFVGIWSPTPKEAPFVCIEPWCGIADAVDATGQLAEKFGINKLPANELFKTQYMISVKLEHHHHHH	not soluble
MTVQVFHTLFLTNDCGDHVVLINTREIALPGDEWVKRVYFHHTGYPGGASWTLAWQLHEKDPTMVMKKAVYNSMRGNLQRRHTMQRLHLFADDQVPEEILQNVTNQIRTPRSIPQRLDHIDKETLENFPNIMDYPKDYILRLEHHHHHH	not soluble
MTVWSKLLSALRGGANEVGEAIVDSQALRILDQEIRDADVELRKSREALASIMARHRLAQERVEKGAAQVAEYEQYAIKALEAGNEELAREVAEKIATLENQLEGERAQVAEFAASVAQLRKSVSQAEGNIRQLKQQVDTVKATESVQKAQMAVAQRYGNSKSKLQTAVDSLERIKQRQAERAATMDAAAELASAAAPDDALDAKLRAAGIKASGNSVDGVLARLKEKGKAAAALEHHHHHH	not soluble
MTYEAGCGLIKALEDPDNRVRQRAVKTLGKRGNPDVLEDLMEALKDSRQPVQEAASEALRKIIAASDSVPVLVKALDATDRNVRKAAIEALWKAGTPEAIPPLLRELDDADWYLRSRAADALADIASPEAALGLIKVMDIHDSPVKKIIVNALGKIGTVEAVEGLVKALEDLEHHHHHH	not soluble
MTYSHEVEHMCVVKKGPNHGPAPIPEEGKWVKSKEIVDISGLTHGIGWCAPQQGACKLTLNVKEGVIQEALVETIGCSGMTHSAAMAAEILPGKTILEALNTDLVCDAINTAMRELFLQIVYGRTQSAFSEGGLIIGAGLEDLGKGLRSQVGTLYGTLAKGPRYLEMAEGYIKNIFLDKNDEICGYEFVHMGKFMDEIKKGTDANEALKKVTGTYGRVTAEQGAVKHIDPRHE	not soluble
MTYSIVAISGSPSRNSTTAKLAEYALAHVLARSDSQGRHIHVIDLDPKALLRGDLSNAKLKEAVDATCNADGLIVATPIYKASYTGLLKAFLDILPQFALAGKAALPLATGGSPAHVLALDYGLRPVLHSMGVRHVVQSFFLVQSQFSVVDGKLAVEDDVASQLNNAIDHFRLSLSSEPSTRHLGHPRPSLDATRAA	soluble
MTYWICITNRENWEVIKRHNVWGVPKKHKNTLSRVKPGDKLVIYVRQEKDKEGNLLEPKIVGIYEVTSEPYVDFSRIFKPHRGGKETYPYRVKIKPIKIGEINFKPLINDLKFIKNKKRWSMHFFGKAMRELPEEDYKLIEKLLL	soluble
MVAFTVDQMRSLMDKVTNVRNMSVIAHVDHGKSTLTDSLVQRAGIISAAKAGEARFTDTRKDEQERGITIKSTAISLYSEMSDEDVKEIKQKTDGNSFLINLIDSPGHVDFSSEVTAALRVTDGALVVVDTIEGVCVQTETVLRQALGERIKPVVVINKVDRALLELQVSKEDLYQTFARTVESVNVIVSTYADEVLGDVQVYPARGTVAFGSGLHGWAFTIRQFATRYAKKFGVDKAKMMDRLWGDSFFNPKTKKWTNKDTDAEGKPLERAFNMFILDPIFRLFTAIMNFKKDEIPVLLEKLEIVLKGDEKDLEGKALLKVVMRKFLPAADALLEMIVLHLPSPVTAQAYRAEQLYEGPADDANCIAIKNCDPKADLMLYVSKMVPTSDKGRFYAFGRVFAGTVKSGQKVRIQGPNYVPGKKDDLFIKAIQRVVLMMGRFVEPIDDCPAGNIIGLVGIDQFLLKTGTLTTSETAHNMKVMKFSVSPVVQVAVEVKNANDLPKLVEGLKRLSKSDPCVLTYMSESGEHIVAGTGELHLEICLQDLEHDHAGVPLKISPPVVAYRETVESESSQTALSKSPNKHNRIYLKAEPIDEEVSLAIENGIINPRDDFKARARIMADDYGWDVTDARKIWCFGPDGNGPNLVIDQTKAVQYLHEIKDSVVAAFQWATKEGPIFGEEMRSVRVNILDVTLHADAIHRGGGQIIPTMRRATYAGFLLADPKIQEPVFLVEIQCPEQAVGGIYSVLNKKRGQVVSEEQRPGTPLFTVKAYLPVNESFGFTGELRQATGGQAFPQMVFDHWSTLGSDPLDPTSKAGEIVLAARKRHGMKEEVPGWQEYYDKL	soluble
MVAVYDVEFPLPLNTQPMEARAAGVLPRDDGPWQYEPKWDGFRCLAFKAGKAVDLRAKSGKPLGRYFPELMAALSALAATEFVIDGEIIIEIEGRASFDALQMRLHPAESRIRKLSRETPARLVVFDMLVAPEGRPRMELPLRDRRAEAEDLVAKAKTKTLRLSPATTSLATADNWLKGAGSGSIDGVVAKLLNGPYRPGERAMVKVKRLRTADCVVGGFRYLNGKRQVGSLLLGLYNGDGLLDHVGFTSTIANDERAVLTEKLENLRGGSGFTGKAPGGPSRWSTERSGEWEPVRPELVVEVRFDHVTGDRFRHGTKLVRWRPDKAPLQCTFEQLELEHHHHHH	soluble
MVDIPPPFDLACITKKPITKSSPSLLIESDSPDKYKKKKSSFKRFLALTFKKKTENKLHVDVNVSSSRSSSESSYHGPSRILEVDRRSLSNSPQLKSRTGKLRASESPSSLIFYRDGKRKGVPFSRTVSRVESFEDRSRPPFLPLPLTKPRSISFPSADTSDYENIPAMNSDYENIQIPPRRPARAGAFTKLFEDQSRALSTANENDGYVDMSSFNAFESKQQSADQDAESAYTEPYKVCPISSAAPKEDLTSDEEQRSSEEEDSASRDPSVTHKVEGQSRALVIAQELLSSEKAYVEMLQHLNLDFHGAVMRALDDMDHEGRDTLAREELRQGLSELPAIHDLHQGILEELEERLSNWESQQKVADVFLAREQGFDHHATHILQFDRYLGLLSENCLHSPRLAAAVREFEQSVQGGSQTAKHRLLRVVQRLFQYQVLLTDYLNNLCPDSAEYDNTQGALSLISKVTDRANDSMEQGENLQKLVHIEHSVRGQGDLLQPGREFLKEGTLMKVTGKNRRPRHLFLMNDVLLYTYPQKDGKYRLKNTLAVANMKVSRPVMEKVPYALKIETSESCLMLSASSCAERDEWYGCLSRALPEDYKAQALAAFHHSVEIRERLGVSLGERPPTLVPVTHVMMCMNCGCDFSLTLRRHHCHACGKIVCRNCSRNKYPLKYLKDRMAKVCDGCFGELKKRGRAVPGLMRERPVSMSFPLSSPRFSGSAFSSVFQSINPSTFKKQKKVPSALTEVAASGEGSAISGYLSRCKRGKRHWKELWFVIKGKVLYTYMASEDKVALESMPLLGFTIAPEKEEGSSEVGPIFHLYHKKTLFYSFKAEDTNSAQRWIEAMEDASVL	soluble
MVDKLKQQNCTISTCESLTAGLMAATIANLPGSSQVLRGGLITYATDSKVSVAGVPGATVEEHGPVSWQCAEAMAIGAKRQFQSQWAVSLTGVAGPATQCGQPVGTVWIGVALPNGTVKSKLVADILCGPGQVVAGDRQTIRLAAVRAAAMWITDLLGLEYTNEN	not soluble
MVDKREEVMHVAMFPWLAMGHLLPFLRLSKLLAQKGHKISFISTPRNIERLPKLQSNLASSITFVSFPLPPISGLPPSSESSMDVPYNKQQSLKAAFDLLQPPLKEFLRRSSPDWIIYDYASHWLPSIAAELGISKAFFSLFNAATLCFMGPSSSLIEEIRSTPEDFTVVPPWVPFKSNIVFRYHEVTRYVEKTEEDVTGVSDSVRFGYSIDESDAVFVRSCPEFEPEWFGLLKDLYRKPVFPIGFLPPVIEDDDAVDTTWVRIKKWLDKQRLNSVVYVSLGTEASLRHEEVTELALGLEKSETPFFWVLRNEPKIPDGFKTRVKGRGMVHVGWVPQVKILSHESVGGFLTHCGWNSVVEGLGFGKVPIFFPVLNEQGLNTRLLHGKGLGVEVSRDERDGSFDSDSVADSIRLVMIDDAGEEIRAKAKVMKDLFGNMDENIRYVDELVRFMRSKGSSSSS	not soluble
MVDPPGNDDDHGDLDALDFSAAHTNEASPLDALDDYAPVQTDDAEGDLDALHALTERDEEPELELFTVTNPQGSVSVSTLMDGRIQHVELTDKATSMSEAQLADEIFVIADLARQKARASQYTFMVENIGELTDEDAEGSALLREFVGMTLNLPTPEEAAAAEAEVFATRYDVDYTSRYKADD	soluble
MVDRVIEMAIQQQPMTEPVGIPVIILKEGTQRSYGREALRANIMAVRAIAQILKTTYGPKGMDKMLVDSLGDITITNNGATILDKMDVAHPAAKMLVQISKGQEDEAGDGTKTTVIFAGELLKEAEKLLDINIHPTIIVEGYKEALRKASEVIESIAEPVSYDDVEKLKLIAKTSLNSKAVAEARDYFAELAVEAVRTVAERRGDRWYVDLNNIQIVKKHGGSLRDTRLVRGIVLDKEVVHPDMPRRVENARIALLDTPLEIEKPEIDLEISITSPEQIKALYEKQERILQEKIEKIAATGANVVITQKGIDDVAQHFLAKKGILAVRRVKRSDIEKIARATGARIVTDIEDLRPEDLGYAELVEERKVGEDKMVFIEGAKNPKSVTILLRGGFERLVDEAERSLHDALSVVADAIMDGKIVAGGGAVEAEVAKVLYEYASKLPGKTQLAVEAFARAVEALPQALAHNAGHDPIEVLVKLRSAHEKPENKWYGVDLDTGEIVDMWSRGVLEPMRVKLNALKAATEVASLILRIDDVIAARKEEEEKEEKRGGEEE	soluble
MVEIVGHRAFKARYPENTLLAFEKAYAAGADVIETDLQMTSDGMVVVNHDSDTGRMWDKNLVIGESTWEEVKRLRCKEDGSLAMMTLKEILTWAVCHPGAKLMLDIKFTNEKIIMIKTFVIMLEVKNDLKFWQERITWGLWLLDWYDFGIETGVLKDFKVIVISLSLDIASQFVKRSLTLNDPHYKLFGISVHFVSSWTSQFRLRLLPVLMKNDIKVYLWTVNKPIDFKYLCELPIHGAITDDPIKARKLCDGHTVAKKPTAEKKFVAPSLASVDGLRFHAFIKVYNILCTLLYSKWVHIKLCGWSIAYVIFLFLRTIHFL	soluble
MVEMDGRKFLKLLKEEVHKAVVGKDDVIELLAIALLAEGHVMIEGVPGVAKTTIAKSFAQVLGLKFSRIQLTPDLLPADILGTVYYDQSDGLWKIKKGPIFANVVLADEINRAQPKTQSALLEAMQERQVTIEGRTFPLEKPFMVIATKNPIEFEGVYNLPEAQVDRFMLNIKIGYPTREEEVEMLRKKDRGELGEVGRIFSREQIVRMINEVKRVKTSEEVLHYLYEIVNETRKDERLIVGASPRASEHLLYASKAKAFLEGRDYVIPDDVKFLAVPVLAHRLLIKAEHEIEGIKGEDIVREILERVEVPI	soluble
MVESQFEQDSQISTDSPLVLVKAAEKTSAIQQLLDYISNYQMISSNSIPIKSMDKIMMLKLDDIILVDVNQTTLKIYTLTGVFTTTETLVHFANRLNKSNFIQISKHALINLDHLESLSDSFSGNMMAKLSSNIKSSVSRKYVKGLMTQLGI	not soluble
